What follows are sequences tested on Escherichia coli TOP10 (assay: shrunken log2 fold change of peptide-encoding DNA abundance (4.5 h post-induction vs induction); higher = less antimicrobial activity (less host growth inhibition)). Details: time post-induction: 4.5 h; library: site-saturation at positions 5, 18, 19, 20.
With RRIRHRPPRLPRPRPRPIGGPRP the “shrunken log2 fold change” value was 0.111. In the case of RRIRFRPPRLPRPRPRPGMLPRP, the “shrunken log2 fold change” value is reported as -0.169. In the case of RRIRCRPPRLPRPRPRPVQLPRP, the “shrunken log2 fold change” value is reported as 0.0365. With RRIRMRPPRLPRPRPRPMMFPRP the “shrunken log2 fold change” value was 0.251. RRIRFRPPRLPRPRPRPQMCPRP was tested, and the “shrunken log2 fold change” value was -0.119. In the case of RRIRFRPPRLPRPRPRPYTEPRP, the “shrunken log2 fold change” value is reported as -0.631. With RRIRCRPPRLPRPRPRPASNPRP the “shrunken log2 fold change” value was -0.342. With RRIRSRPPRLPRPRPRPVWHPRP the “shrunken log2 fold change” value was 0.182. In the case of RRIRTRPPRLPRPRPRPTEGPRP, the “shrunken log2 fold change” value is reported as 0.1. With RRIRFRPPRLPRPRPRPHNMPRP the “shrunken log2 fold change” value was -0.896. RRIRMRPPRLPRPRPRPAHIPRP was tested, and the “shrunken log2 fold change” value was -0.161. In the case of RRIRIRPPRLPRPRPRPEWDPRP, the “shrunken log2 fold change” value is reported as 0.054. In the case of RRIRPRPPRLPRPRPRPEHRPRP, the “shrunken log2 fold change” value is reported as 0.0967. In the case of RRIRIRPPRLPRPRPRPDFEPRP, the “shrunken log2 fold change” value is reported as -0.39. RRIRFRPPRLPRPRPRPIRPPRP was tested, and the “shrunken log2 fold change” value was -0.009. In the case of RRIRDRPPRLPRPRPRPGGFPRP, the “shrunken log2 fold change” value is reported as 0.134. For RRIRKRPPRLPRPRPRPQCAPRP, the “shrunken log2 fold change” value was 0.28. In the case of RRIRARPPRLPRPRPRPWKCPRP, the “shrunken log2 fold change” value is reported as 0.0662. With RRIRFRPPRLPRPRPRPDQRPRP the “shrunken log2 fold change” value was -0.325. RRIRHRPPRLPRPRPRPYAVPRP was tested, and the “shrunken log2 fold change” value was -0.0274. For RRIRFRPPRLPRPRPRPVHSPRP, the “shrunken log2 fold change” value was -0.126. For RRIRDRPPRLPRPRPRPVTEPRP, the “shrunken log2 fold change” value was 0.0911. In the case of RRIRKRPPRLPRPRPRPNKFPRP, the “shrunken log2 fold change” value is reported as -0.0338. RRIRWRPPRLPRPRPRPYTPPRP was tested, and the “shrunken log2 fold change” value was -0.72. In the case of RRIRNRPPRLPRPRPRPYCWPRP, the “shrunken log2 fold change” value is reported as -0.425. With RRIRIRPPRLPRPRPRPMNDPRP the “shrunken log2 fold change” value was -0.00303. With RRIRKRPPRLPRPRPRPKDMPRP the “shrunken log2 fold change” value was 0.139. In the case of RRIRVRPPRLPRPRPRPGHVPRP, the “shrunken log2 fold change” value is reported as 0.0316. In the case of RRIRQRPPRLPRPRPRPVNSPRP, the “shrunken log2 fold change” value is reported as -0.0167. In the case of RRIRTRPPRLPRPRPRPAMWPRP, the “shrunken log2 fold change” value is reported as 0.35. In the case of RRIRYRPPRLPRPRPRPQAGPRP, the “shrunken log2 fold change” value is reported as 0.00284. With RRIRKRPPRLPRPRPRPHGMPRP the “shrunken log2 fold change” value was -0.00215. In the case of RRIRNRPPRLPRPRPRPCDYPRP, the “shrunken log2 fold change” value is reported as -0.00992. For RRIRHRPPRLPRPRPRPDFIPRP, the “shrunken log2 fold change” value was -0.391. RRIRERPPRLPRPRPRPMAPPRP was tested, and the “shrunken log2 fold change” value was 1.59. RRIRWRPPRLPRPRPRPPQMPRP was tested, and the “shrunken log2 fold change” value was 0.592. With RRIRYRPPRLPRPRPRPEIKPRP the “shrunken log2 fold change” value was -0.114. For RRIRHRPPRLPRPRPRPFGAPRP, the “shrunken log2 fold change” value was -0.0114. For RRIRIRPPRLPRPRPRPWFTPRP, the “shrunken log2 fold change” value was -0.563. In the case of RRIRNRPPRLPRPRPRPGLCPRP, the “shrunken log2 fold change” value is reported as 0.685. With RRIRMRPPRLPRPRPRPKFNPRP the “shrunken log2 fold change” value was -0.111. With RRIRNRPPRLPRPRPRPRLHPRP the “shrunken log2 fold change” value was 0.0921. RRIRWRPPRLPRPRPRPGFQPRP was tested, and the “shrunken log2 fold change” value was 0.127. With RRIRRRPPRLPRPRPRPECLPRP the “shrunken log2 fold change” value was 0.635. With RRIRRRPPRLPRPRPRPELEPRP the “shrunken log2 fold change” value was 1.16. For RRIRQRPPRLPRPRPRPCTCPRP, the “shrunken log2 fold change” value was -0.0638. With RRIRQRPPRLPRPRPRPWRIPRP the “shrunken log2 fold change” value was -0.416. With RRIRFRPPRLPRPRPRPTGRPRP the “shrunken log2 fold change” value was 0.131. For RRIRGRPPRLPRPRPRPYDYPRP, the “shrunken log2 fold change” value was -0.15. With RRIRFRPPRLPRPRPRPYNVPRP the “shrunken log2 fold change” value was -0.138. With RRIRARPPRLPRPRPRPAFCPRP the “shrunken log2 fold change” value was 0.645. For RRIRKRPPRLPRPRPRPPPTPRP, the “shrunken log2 fold change” value was 1.11. In the case of RRIRRRPPRLPRPRPRPCMKPRP, the “shrunken log2 fold change” value is reported as -0.0288. In the case of RRIRWRPPRLPRPRPRPGDYPRP, the “shrunken log2 fold change” value is reported as 0.0468. In the case of RRIRRRPPRLPRPRPRPAFLPRP, the “shrunken log2 fold change” value is reported as -0.0132. For RRIRLRPPRLPRPRPRPDVEPRP, the “shrunken log2 fold change” value was -0.0825. RRIRFRPPRLPRPRPRPFGAPRP was tested, and the “shrunken log2 fold change” value was 0.168. RRIRIRPPRLPRPRPRPILQPRP was tested, and the “shrunken log2 fold change” value was -0.146. For RRIRHRPPRLPRPRPRPFRQPRP, the “shrunken log2 fold change” value was 0.0583. For RRIRMRPPRLPRPRPRPYQAPRP, the “shrunken log2 fold change” value was 2.21. For RRIRQRPPRLPRPRPRPQLYPRP, the “shrunken log2 fold change” value was 0.119. For RRIRMRPPRLPRPRPRPFINPRP, the “shrunken log2 fold change” value was -0.278. With RRIRMRPPRLPRPRPRPQPVPRP the “shrunken log2 fold change” value was 0.622. With RRIRIRPPRLPRPRPRPCWDPRP the “shrunken log2 fold change” value was -0.0479. RRIRGRPPRLPRPRPRPINHPRP was tested, and the “shrunken log2 fold change” value was -0.0462. RRIRCRPPRLPRPRPRPGSDPRP was tested, and the “shrunken log2 fold change” value was -0.0369. In the case of RRIRSRPPRLPRPRPRPPINPRP, the “shrunken log2 fold change” value is reported as -0.32. In the case of RRIRLRPPRLPRPRPRPSINPRP, the “shrunken log2 fold change” value is reported as -0.32. For RRIRQRPPRLPRPRPRPQWWPRP, the “shrunken log2 fold change” value was 0.0549. With RRIRWRPPRLPRPRPRPDNWPRP the “shrunken log2 fold change” value was 0.104. With RRIRQRPPRLPRPRPRPESVPRP the “shrunken log2 fold change” value was 0.00473. With RRIRIRPPRLPRPRPRPTCRPRP the “shrunken log2 fold change” value was -0.103. For RRIRPRPPRLPRPRPRPMNEPRP, the “shrunken log2 fold change” value was -0.0529. In the case of RRIRKRPPRLPRPRPRPTCLPRP, the “shrunken log2 fold change” value is reported as 0.0518. With RRIRSRPPRLPRPRPRPTILPRP the “shrunken log2 fold change” value was -0.413.
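Further: peptides expressed intracellularly from a pBAD plasmid library in pooled LB shake-flask culture, induced with 0.3% L-arabinose, DNA abundance read by NGS, three biological replicates, DESeq2 with apeglm shrinkage.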
